Experimental findings from patent US20240352121A1, “LAIR-1 AGONISTIC ANTIBODIES AND METHODS OF USE THEREOF” (NEXTCURE, INC., priority 2023, published 2024) are described below.

The target of one test is T1, human LAIR-1 (Homo sapiens, UniProt Q6GTX8, D63E/L98P/R92S/S123T).
T1 construct: expressed in transfected cells
T1 sequence (Q6GTX8 22-287 D63E/R92S/L98P/S123T): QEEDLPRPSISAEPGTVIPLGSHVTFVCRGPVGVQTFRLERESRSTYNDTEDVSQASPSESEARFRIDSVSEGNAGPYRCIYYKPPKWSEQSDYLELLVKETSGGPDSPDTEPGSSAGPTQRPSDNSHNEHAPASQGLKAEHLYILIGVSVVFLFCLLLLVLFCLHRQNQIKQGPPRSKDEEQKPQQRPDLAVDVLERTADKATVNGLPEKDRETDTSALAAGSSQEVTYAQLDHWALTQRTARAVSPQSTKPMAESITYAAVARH
The test is described as follows: Cell binding to human LAIR-1 cells by flow cytometry. The note with it: UT-140 cells. As for the experimental part: FIGS. 21A-21B display LAIR-1 binding properties including h11B3 LAIR-1 mAbs binding to cells expressing human LAIR-1 or cynomolgus LAIR-1 as measured by flow cytometry. The h11B3 LAIR-1 mAbs include a variable light chain of SEQ ID NO: 16 and a variable heavy chain of SEQ ID NO: 21, as shown for Anti-LAIR-1 Variant 6 in Table 1 herein. […] Cells were incubated for 30 min on ice with titrated concentrations of h11B3. AF647 conjugated secondary antibody was used at 1:2000 dilution. […] Cells were incubated for 30 min on ice with titrated concentrations of h11B3. AF647 conjugated secondary antibody was used at 1:2000 dilution.
For cell binding assays, 5e4 UT-140 cells or mouse LAIR-1-transfected 293T cells per well were plated in 200 μL PBS in a 96-well round bottom plate, centrifuged for 4 minutes at 500×g for a single wash, and blocked for 10 minutes on ice with flow cytometry buffer (PBS+2% FBS+0.1 mM EDTA) containing 1:50 dilution of TruStain™ Fc block (Biolegend, San Diego, CA). Cells were subsequently stained for 30 min on ice with titrated concentrations of soluble AF647-labeled LAIR-1 mAb or AF647-labeled isotype control. Cells were then washed 3 times as previously described and binding was measured by flow cytometry using an Attune NXT flow cytometer. […] GFP expression was measured by flow cytometry using an Attune NXT Flow Cytometer.
For orientation: In flow cytometry, cells or beads pass a laser one at a time.

Another test concerns SoC-resistant AML. As to the kind of experiment: PDX model with BM from a VEN/AZA-resistant patient. Also noted: species or system NSG-SGM3 mice. The following applies: mouse, in vivo. As for the experimental part:
Ex vivo killing of VEN/AZA-treated AML patient leukemic cells (FIG. 7A) or T cells or NK cells (FIG. 7B). Values normalized to vehicle control. Lines represent linear regression of NC525 concentration versus normalized cell killing. […] FIGS. 7D and 7E show in vivo leukemic growth as measured by whole-body luminescence of MV4-11-luciferase cells (FIG. 7D) or survival (FIG. 7E) of CDX mice treated with 10 mg/kg isotype control (gray) or NC525 (red) or 100 mg/kg VEN (pink) or 0.5 mg/kg AZA (blue) or combination therapy (green or yellow, respectively). BLoD, below limit of detection. n=9 mice per group. P values determined by 2-way ANOVA or log-rank (Mantel-Cox) test, respectively. FIGS. 7F and 7G show leukemic growth in the blood (FIG. 7F) and in the spleen and BM (FIG. 7G) at week 8 after transplant of AML PDX mice treated with vehicle (gray), VEN/AZA (blue), NC525 (red), or VEN/AZA plus NC525 (green). n=5-10 mice per group. AML cells in spleen and BM compared from 4-5 mice per group. Data are shown as the mean±SEM. P values determined by 2-way ANOVA or 1-way ANOVA with multiple comparisons.
Newborn (3-5 day from birth) NSG-SGM3 pups were sub-lethally (200 cGy) irradiated. […] Leukemia progression in recipient mice was measured by flow cytometry by quantifying the percent of human CD33^+ human CD45^+ cells in peripheral blood at weeks 4, 6, and 10 weeks post-transplant.

B1: LAIR-1 mAb: humanized agonist anti-LAIR-1 mAb, IgG1 backbone; h11B3 VL-2 (SEQ ID NO: 16), h11B3 VH-3 (SEQ ID NO: 27) (antibody, V domains shown)
VH: EVQLVESGGGLVQPGGSLKLSCAASGFTFNTNAMYWVRQAPGKGLEWVGRIRSKSSNYATYYAASVKGRFTISRDDSKNTLYLQMNSLKTEDTAVYYCVRGGSGFFAYWGQGTLVTVSS
VL: DIQMTQSPSSLSASLGDRVTITCKASEDIYIRLAWYQQKPGKAPRLLISTATSLETGVPSRFSGSGSGTDYTFTISSLQPEDIATYYCQQYWSTPYTFGGGTRLEIK
modifications: IgG1 constant regions; Synthetic: h11B3 VH-3; Synthetic: h11B3 VL-2
With B1, in the test with human LAIR-1, the “binding to human LAIR-1” value was “specifically binds”. The “AML disease (circulating blast cell burden, AML cells in spleen and BM)” value in the test with SoC-resistant AML was “significantly reduced”.
